T1: hVEGFR-3 (Homo sapiens, UniProt P35916)
T1 construct: Ig (immunoglobulin fusion partner); made in house
T1 sequence (P35916 25-775 limits assumed): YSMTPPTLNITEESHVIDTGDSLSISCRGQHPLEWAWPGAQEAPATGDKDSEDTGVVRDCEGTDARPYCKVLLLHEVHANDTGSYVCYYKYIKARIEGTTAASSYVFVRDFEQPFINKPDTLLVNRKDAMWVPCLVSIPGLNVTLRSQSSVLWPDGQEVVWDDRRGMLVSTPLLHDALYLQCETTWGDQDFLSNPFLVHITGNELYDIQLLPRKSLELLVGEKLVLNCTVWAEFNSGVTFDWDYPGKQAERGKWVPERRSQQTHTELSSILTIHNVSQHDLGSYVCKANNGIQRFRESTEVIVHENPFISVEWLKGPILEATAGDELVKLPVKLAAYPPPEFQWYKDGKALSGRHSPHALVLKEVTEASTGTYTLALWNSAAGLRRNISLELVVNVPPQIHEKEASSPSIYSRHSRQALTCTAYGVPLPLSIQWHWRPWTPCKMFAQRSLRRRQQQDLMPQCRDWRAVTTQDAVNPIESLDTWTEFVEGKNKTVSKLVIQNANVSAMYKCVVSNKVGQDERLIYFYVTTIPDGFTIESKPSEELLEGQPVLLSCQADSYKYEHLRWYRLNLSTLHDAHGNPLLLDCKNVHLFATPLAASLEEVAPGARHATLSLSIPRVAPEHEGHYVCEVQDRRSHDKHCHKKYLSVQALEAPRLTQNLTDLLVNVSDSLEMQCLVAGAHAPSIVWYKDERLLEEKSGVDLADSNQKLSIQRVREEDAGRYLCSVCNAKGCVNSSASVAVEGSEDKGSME


How the values were obtained:
CREB = CREB Ser133 phosphorylation in HMVE cells, Western blot; type: cell-based, human; conditions: HMVECs
Method: Western blot analysis. Endothelial cells were cultured on 35 mm dishes to near confluence, starved for 24 h in serum free medium and stimulated as indicated. Wortmannin ([…]), LY294002 ([…]), PD98059 (10-25 μM) or GF109203X (2.5-5 μM) were added 1-3 h before stimulation, where indicated. DMSO, into which the inhibitors were dissolved, was used as a control. After the stimulation, the cells were lysed in lysis buffer (50 mM HEPES, pH 7.5, 150 mM NaCl, 10 mM EDTA, 100 mM NaF, 1% TritonX-100 supplemented with 2 mM Na3VO4, 0.5 mM PMSF, 100 U/ml approtinin and 10 μg/ml leupeptin). Clarified lysates were separated by SDS-PAGE, transferred to nitrocellulose and immunoblotted using the phosphospecific antibodies for Akt-Ser473, Akt-Thr308, p42/44 MAPK-Thr202/Tyr204 or CREB-Ser133. The bound antibodies were detected using horseradish peroxidase conjugated secondary antibodies and enhanced chemiluminescence detection system. The blots were stripped and reprobed with antibodies against Akt, MAPK or CREB for quantification by reading the optical densities of the signals with Multi-Analyst 2.0.1 program (Bio-Rad).
The p42/p44 MAPK activation was detected by Western blotting using phospho-Thr202/Tyr204-MAPK specific antibodies and CREB phosphorylation using phospho-Ser133 specific antibodies. The growth factor concentrations used were: VEGF 10 ng/ml, VEGF-C 100 ng/ml and VEGF-C156S 500 ng/ml. […] Effects of inhibition of protein kinase C by GF109203X, MEK1 by PD98059 and PI-3 kinase by LY294002 on p42/p44 MAPK Thr202/Tyr204 phosphorylation, CREB Ser133 phosphorylation and Akt Ser473 phosphorylation in HMVE cells. The growth factor concentrations used were: VEGF 1 ng/ml, VEGF-C 10 ng/ml and VEGF-C156S 500 ng/ml

hVEGFR-2 = target: T2, hVEGFR-2 (Homo sapiens, UniProt P35968); assay: Biosensor (BIAcore) analysis of ligand binding to immobilized VEGFR-2; conditions: hVEGFR-2 bivalent immunoglobulin fusion protein immobilized; global fitting, 1:1 Langmuirian model with mass transfer
T2 construct: Receptor domains were coupled to the carboxymethylated dextran layer of a CM5 sensor chip
T2 sequence (P35968 20-764 limits assumed): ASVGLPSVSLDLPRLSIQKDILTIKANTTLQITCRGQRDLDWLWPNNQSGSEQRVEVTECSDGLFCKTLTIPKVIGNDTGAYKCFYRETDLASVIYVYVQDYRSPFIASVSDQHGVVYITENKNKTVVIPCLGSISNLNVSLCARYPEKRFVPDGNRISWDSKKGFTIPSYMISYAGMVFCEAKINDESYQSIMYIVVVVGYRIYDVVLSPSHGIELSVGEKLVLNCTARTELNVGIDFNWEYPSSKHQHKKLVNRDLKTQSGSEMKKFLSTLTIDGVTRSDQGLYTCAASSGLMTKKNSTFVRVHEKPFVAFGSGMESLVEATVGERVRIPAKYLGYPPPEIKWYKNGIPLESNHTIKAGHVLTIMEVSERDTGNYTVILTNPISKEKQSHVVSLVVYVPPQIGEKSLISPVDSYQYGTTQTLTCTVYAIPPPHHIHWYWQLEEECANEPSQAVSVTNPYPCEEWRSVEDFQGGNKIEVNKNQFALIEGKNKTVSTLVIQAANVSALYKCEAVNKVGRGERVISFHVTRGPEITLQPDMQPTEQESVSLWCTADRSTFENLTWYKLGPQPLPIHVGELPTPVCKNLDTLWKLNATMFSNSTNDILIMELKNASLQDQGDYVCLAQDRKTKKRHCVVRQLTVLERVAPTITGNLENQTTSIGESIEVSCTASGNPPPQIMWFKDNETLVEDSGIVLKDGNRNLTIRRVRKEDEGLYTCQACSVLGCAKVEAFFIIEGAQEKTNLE
Method: (§1) Biosensor Analysis. All preparations were analysed for homogeneity and buffer exchanged by micropreparative size exclusion HPLC using a Superose 12 (3.2/30) column installed in a SMART system (Amersham Pharmacia Biotech, Uppsala, Sweden) immediately prior to use (Nice and Catimel, Bioessays, 21:339-352, 1999). The concentrations of VEGF-C and VEGF-D were determined by absorbance at 280 nm using E280 1% 1 cm of 0-65. Receptor domains were coupled to the carboxymethylated dextran layer of a CM5 sensor chip using standard amine coupling chemistry (Nice and Catimel, Bioessays, 21:339-352, 1999) for analysis of ligad binding using a BIAcore 2000 optical biosensor (BIAcore, Uppsala, Sweden). The levels immobilized were 3,000 RU and 7,000 RU for VEGFR-2 and VEGFR-3, respectively. Following immobilization, residual activated ester groups were blocked by treatment with 1 M ethanolamine hydrochloride pH 8.5 followed by washing with 10 mM diethylamine to remove non-covalently bound material. 10 mM diethylamine or 10 mM HCl was used to regenerate the sensor surface between analyses for VEGF-D or VEGF-C binding, respectively. Samples were diluted in running buffer (10 mM HEPES pH 7.4, 150 mM NaCl, 3.4 mM EDTA, 0.005% Tween 20). The apparent binding affinities of VEGF-C and VEGF-C156S to receptor domains were determined by analysis of the initial dissociation phase to obtain the kd, which was then used to constrain a global analysis of the association region of the curves, assuming a 1:1 Langmuirian model. Data were analysed using BLAevaluation 3.0 (BIAcore, Uppsala, Sweden) as described previously (Catimel et al., J. Chromatogr., 776:15-30, 1997).
Biosensor analysis was used to further investigate the interactions of VEGF-C and VEGF-C156S with VEGFR-2 and VEGFR-3. Analysis of the biosensor binding curves confirmed that VEGF-C156S binds only to the extracellular domain of VEGFR-3, whereas wild type VEGF-C bound to both VEGFR-2 and VEGFR-3 receptors (FIG. 1D-FIG. 1G). […] However, in both assays the affinity of VEGF-C was higher towards VEGFR-3 than towards VEGFR-2.

hVEGFR-3 = target: T1, hVEGFR-3; assay: Biosensor (BIAcore) analysis of ligand binding to immobilized VEGFR-3; conditions: hVEGFR-3 bivalent immunoglobulin fusion protein immobilized; global fitting, 1:1 Langmuirian model with mass transfer
Method: as §1, with “Following immobilization, residual activated ester groups were blocked by treatment with 1 M ethanolamine hydrochloride pH 8.5 followed by washing with 10 mM diethylamine to remove non-covalently bound material. 10 mM diethylamine or 10 mM HCl was used to regenerate the sensor surface between analyses for VEGF-D or VEGF-C binding, respectively. Samples were diluted in running buffer (10 mM HEPES pH 7.4, 150 mM NaCl, 3.4 mM EDTA, 0.005% Tween 20).” left out, “1997). […]” for “1997).”

| KD (hVEGFR-2) | Ka (hVEGFR-2) | Kd (hVEGFR-2) | Ka (hVEGFR-3) | Molecule | CREB phosphorylation on growth factor stimulation (CREB) |
| --- | --- | --- | --- | --- | --- |
| – | – | – | – | VEGF | detected |
| no binding | no binding | no binding | 3500 M⁻¹ s⁻¹ | VEGF-C156S: VEGFR-3 specific mutant form of VEGF-C, cysteine 156 changed into serine; recombinant human (Thr103 to Ile225) (protein, UniProt P49767 103-225, looked up, variant C156S) TEETIKFAAAHYNTEILKSIDNEWRKTQCMPREVCIDVGKEFGVATNTFFKPPSVSVYRCGGCCNSEGLQCMNTSTSYLSKTLFEITVPLSQGPKPVTISFANHTSCRCMSKLDVYRQVHSII | – |

— patent US20080317723A1, “LYMPHATIC ENDOTHELIAL CELLS MATERIALS AND METHODS” (VEGENICS LIMITED, priority 2001, published 2008)
